# ± gives the standard deviation of the averaged measurements.
# Test system: ATP
# Test: switch fluorescence ratio, 500 uM ATP over buffer (Cy3 cluster intensity, sum of 5 cycles each) (fold (ratio)); higher = stronger signal-on switching upon ATP binding; sequences stand for … in TCGTCGGCAGCGTCAGATGTGTATAAGAGACAGTTTTTTTTTTTTTTTTTTTTTTTTT…TC
# Settings: aptamer strand: ATP DNA aptamer (quencher-CACCTGGGGGAGTATTGCGGAGGAAGG + anchor), 100 nM annealed; ATP concentration: 500 uM
# How it was run: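 Cy3-labelled switching-strand clusters on a modified Illumina MiSeq flow-cell were annealed to 100 nM quencher-labelled ATP aptamer, imaged in selection buffer, then imaged after 15 min with 500 uM ATP at 22 °C. Five buffer/ATP cycles ran, with NaOH stripping and re-annealing between them. The fluorescence ratio is summed target-cycle over summed buffer-cycle Cy3 intensity per cluster, averaged per switch-domain sequence. Clusters outside 100-1000 RFU were excluded.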
# 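Further: ATP exposure 15 min at 22 °C before imaging.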
row,Sequence,switch fluorescence ratio
1,ATTAGTGATC,1.003 ± 0.0011
2,TGGGTGGTGG,0.983 ± 0.016
3,TTTGGGACAT,1.01 ± 0.025
4,AGGGAACGGG,1.01 ± 0.055
5,TAAAGCTTCG,1.27 ± 0.041
6,CTGGGGGCGC,0.996 ± 0.03
7,CGAATAAGAA,0.9383 ± 0.0074
8,TGTAGCGGGG,0.9942 ± 0.0048
9,GATATATGAG,0.997 ± 0.064
10,TGGTGGTTCT,0.987 ± 0.029
11,ACAGTTAATA,1.06 ± 0.018
12,GGACACGTTG,1.05 ± 0.083
13,TCTTTGGGTT,1.42 ± 0.92
14,TAGGGGCTTC,0.979 ± 0.018
15,GACCGCTGGT,0.996 ± 0.039
16,GCGGGGGTCA,0.974 ± 0.05
17,GGGTTGGAAT,0.9878 ± 0.003
18,GCGTTTGGGT,0.9955 ± 0.0041
19,GTTCAAGGGG,0.983 ± 0.039
20,TGTTCTAAAG,0.997 ± 0.025
21,TTTTTGACCT,1.38 ± 0.24
22,TTTATTAGGG,0.975 ± 0.021
23,TTATATTGGA,0.971 ± 0.017

row,Sequence,switch fluorescence ratio
1,CGAGGCACAG,1.53 ± 0.052
2,ACGGGACGGG,1.02 ± 0.035
3,TTAAGAGGTC,0.979 ± 0.018
4,ATATCCAATA,0.99 ± 0.036
5,TTTTATCTAG,1.01 ± 0.012
6,TGAATTATAG,1 ± 0.015
7,GAGAGGGGGG,1 ± 0.025
8,AGGGCGTTTC,1.009 ± 0.0032
9,TACTATTTTC,0.984 ± 0.042
10,AGCCTGCCCG,1.05 ± 0.037
11,TGCGTTGCTA,0.996 ± 0.038
12,AAGTCGGATA,1 ± 0.028
13,GGGAAACTAA,1.01 ± 0.031
14,ATGTGGGGTT,1.01 ± 0.014
15,TCGAGAATGG,0.952 ± 0.017
16,GTTTTTGACT,0.964 ± 0.03
17,TTTTTGAAAT,1.35 ± 0.6
18,ATTTAAGAGA,1.01 ± 0.051
19,TTTGTGGATT,1.06 ± 0.069
20,TGTGATTAGG,0.996 ± 0.03
21,AAGCCCAGGG,1.403 ± 0.0054
22,TAAGTCGTGG,0.9735 ± 0.0019
23,TGGGCGGGAG,0.993 ± 0.039

row,Sequence,switch fluorescence ratio
1,CATCTTAGCT,1.035 ± 0.0054
2,TTCAGCATTT,1.1 ± 0.068
3,TAGTTGGATT,0.972 ± 0.038
4,ATAGAATGAT,0.995 ± 0.017
5,TACCGGGCTT,0.978 ± 0.02
6,GGGTATAGTT,0.992 ± 0.024
7,AAGGCAAGAT,1.04 ± 0.064
8,GATTATTGTA,0.9762 ± 0.0045
9,GTGCGCAGAT,0.982 ± 0.022
10,AAAATTTTGT,1 ± 0.021
11,TGAACCAAGC,1.08 ± 0.011
12,ATGATTCCTT,1 ± 0.03
13,AGACGGGGCT,0.975 ± 0.017
14,GATGCGATGT,1.18 ± 0.036
15,GCACTGGTGG,1.02 ± 0.032
16,CGTTACTATA,1.08 ± 0.011
17,TGAGTTGGCT,1.02 ± 0.014
18,GGGTATCGAG,1.01 ± 0.019
19,CCTGATGCGG,1.02 ± 0.059
20,AAATCTCTGA,1.01 ± 0.025
21,TGGGCTGGCT,1 ± 0.023
22,CTGGATTGAG,0.956 ± 0.027
23,TTCGCTACGG,1.05 ± 0.029

row,Sequence,switch fluorescence ratio
1,ATAAGTGATA,1.02 ± 0.025
2,TCTTCACTAC,1.25 ± 0.06
3,TTTCAATTTG,1.04 ± 0.049
4,TTTTCCTTTC,1.206 ± 0.011
5,TAGGAGCGAT,1.15 ± 0.031
6,TTTTGAGCCA,0.983 ± 0.032
7,TTGAGAGCAA,1.72 ± 0.18
8,TGTTTGTTAC,1.011 ± 0.0076
9,CTGTGCGCCC,1.09 ± 0.058
10,TAAAGAAATG,0.99 ± 0.033
11,TTTTAATCAT,1.6 ± 0.88
12,TTGGCTTTTA,0.99017 ± 0.00047
13,GCATTTGGGA,0.99 ± 0.012
14,GCATCAGGGA,1.02 ± 0.035
15,AAGTATATTT,1.001 ± 0.0047
16,GTTAGGAGGC,0.989 ± 0.062
17,TTGTGTACCG,0.96 ± 0.048
18,GAAAGGGGTT,1.02 ± 0.035
19,TTTTGGTAGT,1.03 ± 0.063
20,TTTTAACATT,1.06 ± 0.081
21,GGCATACGTT,0.994 ± 0.026
22,AGCAAGGGGC,1.02 ± 0.023
23,CCTGGGCGTC,1.037 ± 0.004

row,Sequence,switch fluorescence ratio
1,TATCATATCA,0.956 ± 0.017
2,TCTATGATAG,0.971 ± 0.013
3,CCTAAATTAT,1.02 ± 0.035
4,TACGGAAGGT,1.06 ± 0.034
5,TTGGCGGCTA,0.982 ± 0.024
6,CGGGGTGCGA,1.02 ± 0.021
7,TTTTGGACTA,1.05 ± 0.081
8,CGGGTGTGCG,0.955 ± 0.088
9,AGGTGATTTT,0.991 ± 0.013
10,CGAAGTTTTT,0.998 ± 0.004
11,AAGGATTAAT,0.987 ± 0.016
12,TTCATCCGGT,1.52 ± 0.091
13,CTTTGGGGCG,1.01 ± 0.044
14,CATGTGATTA,1.007 ± 0.01
15,GGTTTTGATG,0.98 ± 0.039
16,GGGTTTGTAC,1.13 ± 0.12
17,GTTTAACCGG,1.01 ± 0.035
18,AATTTGACCC,0.9966 ± 0.0026
19,AGATCTATTG,1.03 ± 0.033
20,ACGGATTTGG,0.9926 ± 0.0095
21,CAACTATTTT,1.002 ± 0.0083
22,GGGGTCGACG,1.033 ± 0.0092
23,AGAGGGCATG,0.987 ± 0.026

row,Sequence,switch fluorescence ratio
1,TTAGAAAAGA,1 ± 0.033
2,CTCAAAGTCT,1.02 ± 0.012
3,TTTTACCGTA,1.04 ± 0.034
4,AAACGTTGCT,1.19 ± 0.015
5,AGCCACGCGT,1.01 ± 0.012
6,AGATATGTTG,0.996 ± 0.012
7,CGTTCATATG,0.963 ± 0.023
8,CCTGGGAGGA,1.012 ± 0.0014
9,AAGCGCTGTG,1.03 ± 0.047
10,TAAGGAATGA,0.993 ± 0.019
11,AAGGGTTTAC,0.995 ± 0.035
12,GTGAATAGAG,1 ± 0.027
13,AAATGAGTTA,0.99 ± 0.019
14,GGCGGTTTGT,1 ± 0.028
15,GTGATGTTAG,1.01 ± 0.011
16,CGGTAGGGGT,0.969 ± 0.028
17,ACTTAAGTTT,1.01 ± 0.07
18,CAGGTTTTGT,1.01 ± 0.036
19,TATATTTAAG,1.01 ± 0.03
20,GGTTCTGTCC,1.03 ± 0.021
21,ATTGAGAAGT,0.996 ± 0.031
22,TCGGTGGTAA,0.9823 ± 0.0065
23,TTTTGGGCAA,1.31 ± 0.21

row,Sequence,switch fluorescence ratio
1,TTAGGGATAC,1.88 ± 0.88
2,ATGCGGTGTG,0.978 ± 0.04
3,ACCTTTTTTG,0.992 ± 0.024
4,AAGGGCTTAC,1.135 ± 0.0058
5,AGTGTGTCGG,0.974 ± 0.067
6,AACAGGTTTT,1.003 ± 0.0062
7,TTGGGACTTT,1.03 ± 0.022
8,GGCATTTCTA,1.04 ± 0.018
9,CATTATGGAG,1 ± 0.047
10,TGAAAGATTA,1.01 ± 0.029
11,ATGCTAATTA,1.02 ± 0.024
12,CAGTTTGTTG,0.973 ± 0.037
13,GGAAAATTTA,0.963 ± 0.059
14,CGGGAGAACT,0.987 ± 0.026
15,ATTAAATAGC,1.03 ± 0.043
16,GGTTGGCCGC,1.02 ± 0.032
17,GGTCATGGCG,1.02 ± 0.098
18,TTTATCCGAC,1.15 ± 0.027
19,AGGAGGGAAC,0.9916 ± 0.0016
